# Values of other authors in paper PMC4741949.
# Molecular target: EGFR wild-type (human) (UniProt P00533)
# Details: 2'F-pyrimidines (2'F-C, 2'F-U), RT-qPCR: 15 min 37 C, 100 ug/ml polyinosine, DPBS washes, flow cytometry: DPBS, 30 min, confocal: DMEM without FBS, UV cross-linking buffer not given
sequence,measurement,value
GCCUUAGUAACGUGCUUUGAUGUCGAUUCGACAGGAGGC [CL4],Kd,10 nM
